# Measurements reported in patent US20200140835.
# Assays:
# [1] = test system: Helical-III domain of SpCas9, supplied in trans
# [2] = test system: SpCas9 delta-Helical-III deletion F498-Q712 replaced by GGS linker (Streptococcus pyogenes); assay: cleavage_in_vitro; settings: Helical-III in trans rescues ~100-fold; 5 mM MgCl2
Substance,cleavage with a PAM-distal mismatched target [1],on-target cleavage rate (radiolabeled DNA cleavage assay) [1],activity (fold decrease vs WT) [2]
SpCas9ΔHelical-III (ΔF498-Q712 with GGS linker),had no effect on cleavage with a PAM-distal mismatched target,rescued the on-target cleavage rate by ˜100-fold in a concentration-dependent manner,–
lambda1-targeting sgRNA ; lambda1 on-target DNA,–,–,1000
